Values quoted from earlier work in PMC4799752.

Biological target: transferrin receptor 2 (Homo sapiens) (UniProt Q9UP52)
UniProt Q9UP52, sequence (Q9UP52 whole entry): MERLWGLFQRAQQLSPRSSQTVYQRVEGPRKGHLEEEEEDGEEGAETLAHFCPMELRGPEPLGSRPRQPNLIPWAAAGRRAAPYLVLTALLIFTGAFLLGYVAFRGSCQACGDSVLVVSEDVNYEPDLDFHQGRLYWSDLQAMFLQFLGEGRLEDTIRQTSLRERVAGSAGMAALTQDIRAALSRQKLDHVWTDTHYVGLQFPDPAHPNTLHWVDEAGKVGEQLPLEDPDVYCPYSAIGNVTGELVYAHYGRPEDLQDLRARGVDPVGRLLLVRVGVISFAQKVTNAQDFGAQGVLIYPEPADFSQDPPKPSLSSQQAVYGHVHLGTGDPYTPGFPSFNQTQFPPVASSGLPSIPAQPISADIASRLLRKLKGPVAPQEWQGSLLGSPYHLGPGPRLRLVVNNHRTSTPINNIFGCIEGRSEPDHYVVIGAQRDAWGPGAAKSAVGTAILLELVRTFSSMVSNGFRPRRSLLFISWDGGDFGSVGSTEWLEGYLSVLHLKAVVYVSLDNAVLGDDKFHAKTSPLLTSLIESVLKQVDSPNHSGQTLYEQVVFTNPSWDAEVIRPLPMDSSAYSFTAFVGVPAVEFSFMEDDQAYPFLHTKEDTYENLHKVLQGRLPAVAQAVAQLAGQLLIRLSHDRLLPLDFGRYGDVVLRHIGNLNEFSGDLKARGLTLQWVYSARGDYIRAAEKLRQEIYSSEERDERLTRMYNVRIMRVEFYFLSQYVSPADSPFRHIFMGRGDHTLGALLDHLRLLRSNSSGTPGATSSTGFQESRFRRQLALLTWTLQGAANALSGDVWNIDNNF

transferrin, sequence (P02787 20-698): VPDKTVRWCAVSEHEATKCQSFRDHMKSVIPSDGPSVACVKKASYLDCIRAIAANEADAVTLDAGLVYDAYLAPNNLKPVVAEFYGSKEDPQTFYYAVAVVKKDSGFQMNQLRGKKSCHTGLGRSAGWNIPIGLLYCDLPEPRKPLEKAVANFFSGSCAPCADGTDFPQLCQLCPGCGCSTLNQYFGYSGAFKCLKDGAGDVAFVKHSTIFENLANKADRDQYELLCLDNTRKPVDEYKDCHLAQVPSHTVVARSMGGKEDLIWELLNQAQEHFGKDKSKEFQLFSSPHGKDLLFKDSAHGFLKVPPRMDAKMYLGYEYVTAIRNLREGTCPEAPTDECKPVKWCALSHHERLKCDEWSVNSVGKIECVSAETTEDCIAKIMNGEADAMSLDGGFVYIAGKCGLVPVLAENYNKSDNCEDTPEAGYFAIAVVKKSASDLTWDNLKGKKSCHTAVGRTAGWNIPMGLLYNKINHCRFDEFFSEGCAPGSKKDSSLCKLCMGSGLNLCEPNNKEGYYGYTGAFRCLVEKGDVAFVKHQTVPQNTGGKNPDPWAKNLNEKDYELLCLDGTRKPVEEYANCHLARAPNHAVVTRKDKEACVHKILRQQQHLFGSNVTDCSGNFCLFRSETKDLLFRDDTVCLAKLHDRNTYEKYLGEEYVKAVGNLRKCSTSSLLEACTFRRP

Kd: 30 nM
Substance: transferrin (from UniProt P02787)
